Results on 2 molecules are retold here after patent US6767720 (VLAAMS INTERUNIVERSITAIR INSTITUUT VOOR BIOTECHNOLOGIE VZW, dated 2004).

The target in assay [1] is T1, human αE-catenin fused to the GAL4-DBD (plasmid pGBT9αECTN) (human, UniProt P04386 1-147; P35221 1-906, limits assumed).
T1 construct: also called full-length αE-catenin
The assay can be described thus: yeast two-hybrid, strain Y190, HIS3 and LacZ reporters (FIG. 11).
Procedure: The plates contained the medium composition indicated at the left completed with 40 mM 3-AT and 80 mg/ml X-gal. GAL4-AD=GAL4 transcription activation domain; GAL4-DBD=GAL4 DNA-binding domain; −LT=SD medium lacking Leu and Trp; −LTH=SD medium lacking Leu, Trp and His. pVA3 and pTD1 are plasmids used as a positive control in the two-hybrid system (Matchmaker™, Clontech).

The target of assay [2] is T2, ANC-2H01 initial two-hybrid clone (part of ANC-2H01 fused to the GAL4-AD, plasmid pGAD10ANC2H01) (human, UniProt Q9UID6 27-485).
T2 construct: 27-485 is derived from 459 of 485 residues; also called ANC-2H01 clone; initial ANC-2H01 two-hybrid clone
T2 sequence: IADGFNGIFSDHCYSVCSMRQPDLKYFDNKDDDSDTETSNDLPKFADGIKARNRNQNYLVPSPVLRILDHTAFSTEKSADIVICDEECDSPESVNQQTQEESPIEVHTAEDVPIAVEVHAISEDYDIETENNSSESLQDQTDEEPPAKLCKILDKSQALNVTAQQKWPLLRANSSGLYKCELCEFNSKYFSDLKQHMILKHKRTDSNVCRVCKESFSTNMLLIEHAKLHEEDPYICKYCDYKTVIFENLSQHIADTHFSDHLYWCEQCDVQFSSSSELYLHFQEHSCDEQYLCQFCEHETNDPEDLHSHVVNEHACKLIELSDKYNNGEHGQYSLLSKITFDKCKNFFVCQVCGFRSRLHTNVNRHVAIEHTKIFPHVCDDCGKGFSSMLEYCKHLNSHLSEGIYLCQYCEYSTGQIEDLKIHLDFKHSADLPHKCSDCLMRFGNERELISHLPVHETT
Briefly: yeast two-hybrid, strain HF7c, HIS3 and LacZ reporters.
Procedure: The HF7c yeast strain carries two reporter genes, HIS3 and LacZ, both integrated into the yeast genome and under the control of GAL4 responsive elements, respectively, the GAL1 UAS and the UAS_G-17mer. It has also two auxotrophic markers, trp1 and leu2, which are used for plasmid selection upon transformation. Yeast cultures were grown at 30° C. in either complete YPD medium (1% yeast extract, 2% peptone and 2% glucose) or in SD minimal medium (0.5% yeast nitrogen base without amino acids, 2% glucose, and 1% of the appropriate amino acid drop out solution).
The isolated two-hybrid clone was retransformed into the HF7c strain.

B1: about full-length ANC-2H01 fused to the GAL4-AD (plasmid pGAD424ANC-2H01-FL) (other, not shown: large carriers)
chain: MNEYPKKRKRKTLHPSRYSDSSGISRIADGFNGIFSDHCYSVCSMRQPDLKYFDNKDDDSDTETSNDLPKFADGIKARNRNQNYLVPSPVLRILDHTAFSTEKSADIVICDEECDSPESVNQQTQEESPIEVHTAEDVPIAVEVHAISEDYDIETENNSSESLQDQTDEEPPAKLCKILDKSQALNVTAQQKWPLLRANSSGLYKCELCEFNSKYFSDLKQHMILKHKRTDSNVCRVCKESFSTNMLLIEHAKLHEEDPYICKYCDYKTVIFENLSQHIADTHFSDHLYWCEQCDVQFSSSSELYLHFQEHSCDEQYLCQFCEHETNDPEDLHSHVVNEHACKLIELSDKYNNGEHGQYSLLSKITFDKCKNFFVCQVCGFRSRLHTNVNRHVAIEHTKIFPHVCDDCGKGFSSMLEYCKHLNSHLSEGIYLCQYCEYSTGQIEDLKIHLDFKHSADLPHKCSDCLMRFGNERELISHLPVHETT
With B1, the binding result in assay [1] was “no binding”.

B2: lamin C fused to the GAL4 DNA binding domain (plasmid pLAM5′) (other, UniProt P04386 1-147, looked up)
chain: MKLLSSIEQACDICRLKKLKCSKEKPKCAKCLKNNWECRYSPKTKRSPLTRAHLTEVESRLERLEQLFLLIFPREDLDMILKMDSLQDIKALLTGLFVQDNVNKDAVTDRLASVETDMPLTLRQHRISATSSSEESSNKGQRQLTVSSEEVVSREVSGIKAAYEAELGDARKTLDSVAKERARLQLELSKVREEFKELKARNTKKEGDLIAAQARLKDLEALLNSKEAALSTALSEKRTLEGELHDLRGQVAKLEAALGEAKKQLQDEMLRRVDAENRLQTMKEELDFQKNIYSEELRETKRRHETRLVEID
notes: Irrelevant control protein
For B2, in assay [2], the binding result was “no binding”.
